Data as given in the nanobody polyreactivity screen of Harvey et al. (2022).

Test: yeast display, Sf9 membrane polyspecificity reagent, FACS + sequencing; frameworks hold sequencing errors
Summary of the method: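 Nanobodies from a synthetic yeast display library (Saccharomyces cerevisiae BJ5465), induced 36–48 hours with galactose, were stained 1 hour at 4 °C with 10% biotinylated, detergent-solubilized Sf9 membrane reagent, enriched on streptavidin microbeads, then FACS-sorted. Anti-HA (expression) and streptavidin (reagent binding) fluorescence set low and high (top ~1%) gates. Polyreactivity labels come from the gate of origin. Genes were colony-PCR amplified, MiSeq 2 × 250 sequenced and filtered by CDR length.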

Sequence	polyreactivity (PSR sort gate)
QVQLVESGGGLVQAGGRLRLSCAASGFIFYDYAMGWYRQAPGKERELVAVITSGGSTYYADSVKGRFTISRDNAKNTVYLQMNSLKPEDTAVYYCNADWVFTWYDYPNDKYDYWGQGTQVTVSS	low polyreactivity
QVQLVESGGGLVQAGGRLRLSCAASGFIFYFYAMGWYRQAPGKERELVAAISWSGGSPYYADSVKGRFTISRDNAKNTVYLQMNSLKPEDTAVYYCAADTRTSYYNDDYDYWGQGTQVTVSS	low polyreactivity
QVQLVESGGGLVQAGGRLRLSCAASGFISKYYAMGWSRQAQGKERELVASISRDGSTSYADSVKGRFTISRDNAKNTVYIQMNSLKPEDTAVYYCAAPSYRTRYYYWGQGTQVTVSS	high polyreactivity
QVQLVESGGGLVQAGGRLRLSCAASGFIYRPYLMGWYRQATGKEMEFVAAISGRGGSTYYADSVKGRFTISRDNAKKTVYLQMNSLKPEDTAVYYCNAVYIYTGVGYNYWGQGTQVTVSS	high polyreactivity
QVQLVESGGGLVQAGGRLRLSCAASGFTFAYYAMGGNRQSPGKERELVAAISSGGGSTYYADSEKGRFTISRDNAKNTVYLQMNSQKPEDTAVYYCAAESCSPQAWFDYWGQGTQVTVSS	high polyreactivity
QVQLVESGGGLVQAGGRLRLSCAASGFTFDYNAMGWYIQAPGKEREFVASISVSGGSTYYADSVKGRFTISRDNAKNTVYLQMNSLKPEDTAVYYCAAELTGDGTLGYDFWGQGTQVTVSS	low polyreactivity
QVQLVESGGGLVQAGGRLRLSCAASGFTFVKNAMGWYRQAPGKERELVAAISSRGGSTYYADSVKGRFTISRDNAKNTVYLQMNSLKAEDTAVYYCATERERTMGYWGQGTQVTDSS	high polyreactivity
QVQLVESGGGLVQAGGRLRLSCAASGGIFDTYVMGRYRQAPGKERELVAGISSTGGSTYYADSVKGRFTISRDNAKNTVYLQMNSLKPEDTAVYYCNAEAGGFDYYGKTYRYGDYWGQGTQVTVSS	low polyreactivity
QVQLVESGGGLVQAGGRLRLSCAASGHIFWGYAMGWSRQAPGKERELVAAITSGGNTNYADSVKGRFTISRDNAKNTVYLQMNSLKPEDTAVYYCAKRTRPWRDFDYWGQGTQVTVSS	low polyreactivity
QVQLVESGGGLVQAGGRLRLSCAASGIIFGYYALGWYRQAPGKERELVAAISSGGTTSYADSVKGRFTISRDNAKNTDYLQMNSLKPEDTAVYYCAADYDAAWYKDGYYYWGQGTQVTVSS	low polyreactivity
QVQLVESGGGLVQAGGRLRLSCAASGIIFGYYAMGWYREAPGKEREFVAAINYSGVSTYYADSVKGRLTISRDNAKNTVYLQMNSLKPEDTAVYYCAADFRIVVYGWGGSHMDYWGQGTQVTVSS	low polyreactivity
QVQLVESGGGLVQAGGRLRLSCAASGIIFRGNPMGRYRQAPGKERELVAAIARRGGRTYYADSVKGRFTISRDNAKNTVYLQMNCLKAEDTAVYFCAAGELGDYWGQGTQVTVSS	high polyreactivity
QVQLVESGGGLVQAGGRLRLSCAASGIIFRWYTMGWYRQAPGKERELVAAISTSTGSTYYADSVKGRFTISRDNAKNTVYLQMNSLKPEDSAVYYCAAVYAYWNYESYYWGQGTQVTVSS	high polyreactivity
QVQLVESGGGLVQAGGRLRLSCAASGIIFVYYAMGWYRQAPGKERELVADITRSGSSTYYADSVKGRFTISRDNAKNTVYLQMNSLKAEDTAVYFCAADNFYQAYGYWGQGTQVTVSS	low polyreactivity
QVQLVESGGGLVQAGGRLRLSCAASGIILYGYAMGWYRQAPGKARELVAAITWSGGSTYYADSVKGRFTISRDNAKNTVYLQMNSLKPEDTAVYYCAVDVHTSADASLPQEYDYWGQGTQVTVSS	low polyreactivity
QVQLVESGGGLVQAGGRLRLSCAASGINFSHKVMGWYRQAPGKERELVAAITYSGGSTYYADSVKGRFTSSRDNAKNTVYLQMNSLKPEDTAVYYCNALGVSRRDYDYWGQGTQVTVSS	low polyreactivity
QVQLVESGGGLVQAGGRLRLSCAASGISFDWYAMGWYRQAPGKERELVAAITVGASTYADSVKGRFTISRDNAKNTDYLQMNSLIPEDTAVYYCTFPVFVDYGFYTIGHDYWGQGTQVTVSS	low polyreactivity
QVQLVESGGGLVQAGGRLRLSCAASGITFWNYAMGWYRQAPGKETELVAAITGGSTYYADSVKGRFTISRDYAKNTVYLQMNSLKPEDTAVYYCNADSLFEYWDYDYWGQGTQVTVSS	low polyreactivity
QVQLVESGGGLVQAGGRLRLSCAASGITYEPYAMGWYRQAPGKERELVAAISRSGGSTYYADSVKGRFTISRDNAKNTVYLQMNSLKPVDTAVYYCNALRGTASRRGYYWGQGTQVTVSS	high polyreactivity
QVQLVESGGGLVQAGGRLRLSCAASGITYTVYAMGWYRQAPGKERELLAAISSSGSTTYADSVNGRFTISRDNAKNTVYLLMNSLKPEDTAVYDCAAEGYYRFSTAYFRLKYEYWGQGTQVTVSS	low polyreactivity
QVQLVESGGGLVQAGGRLRLSCAASGLTFASYALGWYRQAPGKERELVARISRSGGSTYYADSVKGRFTISRDNAKNTVYLQMNSLIPEDTAVYYCAADYIFRRYPVGGIYDYDYWGQGTQVTLSS	high polyreactivity
QVQLVESGGGLVQAGGRLRLSCAASGNIFHYNAMGGSRQAPGKERELVAAITWSGGNTYYADSVKGRFTISRDNAKNTVYLQLNSLKPEDTAVYYCAAEFPQRATGGRYKTEYDYWGQGTQVTVSS	low polyreactivity

Sequence	polyreactivity (PSR sort gate)
QVQLVESGGGLVQAGGRLRLSCAASGNIFYAYALGWYRQAPGKERELVAAISWSGDSTYYADSVKGRFTISRDNAKNTVYLQMNSLKPEDTAVYYCAARKVTYHYQWMDYWGQGTQVTVSS	low polyreactivity
QVQLVESGGGLVQAGGRLRLSCAASGRIFERYAMGWYRQAPGKERELVATISTSGGSTYYADSVKGRFTISRDNAKNTVYLQMNSLKPEDTAVYYCAAPYQRRRYYYWGQGTKVTVSS	high polyreactivity
QVQLVESGGGLVQAGGRLRLSCAASGRIFGYYAMGWYRQAPGKERELVAAISYRGGTTYYADSVKGRFTISRDNAKNTVYLQMNSLKPEDTAVYYCAAAAKSGLDYWGQGTQVTVSS	high polyreactivity
QVQLVESGGGLVQAGGRLRLSCAASGRIFIKNAMGWYRQAPGKESELVAAISDSGDSTYYAVSVKGRFTISRDNAKNTVYLQMNSLKPEDTAVYYCAADGADHRSEMYYWGQGTQVTVSS	low polyreactivity
QVQLVESGGGLVQAGGRLRLSCAASGRIFIYYAMGLYRQAPGKERELVAAISWGGGRTYYADSVKGRFTISRDNAKNTVYLQMNSLKPEDTAVYYCAAGVYTGQHEYDYWGQGTQVTVSS	low polyreactivity
QVQLVESGGGLVQAGGRLRLSCAASGRIFNHYAMGWYRQAPGKERELVAAITFSGGSTYYADSVKGRFTISRDNAKNTVHLQMNSLKPEHTAVYYCANRFSYRYGLQYDYWGQGTQGTVSS	high polyreactivity
QVQLVESGGGLVQAGGRLRLSCAASGRIFPWYAMGWSRPAPGKERELVAAISWSGGRTYYADSVKGRFTISRDNAKNTVYLQMNSLKPEDTAVDYCNADKWRYPLSGWWKRYDYWGQGTQVTVSS	high polyreactivity
QVQLVESGGGLVQAGGRLRLSCAASGRIFQHNTMGWYRQAPGKEREFVAAIRRSGGSTYYADSVKGRFTISRDNAKNTVYLQMNSLRPEDTAVYYCAARDYPTGTRRWGGGDSWGQGTQVTVSS	low polyreactivity
QVQLVESGGGLVQAGGRLRLSCAASGRIFSINAMGWYRQAPGKERELVAAISNRGGSTYYADSVKGRFTISRDNAKNTVYLQLNSLKPEDTAVYYCAARVATSGNYAPYYYWGQGTQVTVSS	high polyreactivity
QVQLVESGGGLVQAGGRLRLSCAASGRIFWINDMGWYRQAPGKERELVAAITWSGASTYYADSVKGRFTISRDNAKNTVYLQMNSLKPEDTAVYYCAAVIADSLYYSYDYWGQGTQVTVSS	high polyreactivity
QVQLVESGGGLVQAGGRLRLSCAASGRIFWTYAMGWYRQAPGKERELVAAISSGGSTNYADSVKGRFTISRDNAKNTVYLQMNSLKPEDTAVYYCAADRWYREYDYWGQGTQVTVSS	low polyreactivity
QVQLVESGGGLVQAGGRLRLSCAASGRIYTAYYAMGWYIQAPGKERELVASISSSGTSTYADSVKGRFTISRDNAKNTVYLQMNSLKPEDTAVYYCATRKLRTRRYDYGYWGQGTQVTVSS	low polyreactivity
QVQLVESGGGLVQAGGRLRLSCAASGRNFEPYAMGWYRQAPGKERELVAAISRSGGRTYYADSVKGRFTISRDNAKNTVYLQMNSLKPEDTAVYYCAAVGVYWYVYPHEYDYWGQGTQVTVSS	high polyreactivity
QVQLVESGGGLVQAGGRLRLSCAASGRTFGYNAMGWYRQAPGKERELVAAITYSGGRTYYADSVKGRFTISRDNAKNTVYLQMNSLKPEDTAVYYCAALTRRVKKYDYWGQGTQVTVSS	high polyreactivity
QVQLVESGGGLVQAGGRLRLSCAASGRTFSKYGMGGYRQAPGKEREFVAAISSSGDSTTYADSVKGRFTISRDNAKNAVYLQMNSLKPEDTAVSYCARQTSRYTGGERAYGYWGQGTQVTVSS	low polyreactivity
QVQLVESGGGLVQAGGRLRLSCAASGRTFTQYTMGWYRQAPGKERELVAAISSGGSTYYADSVKGRFTISRDNAKNTVFLQMNSLNPEDTAVYYCAARSYYAKSRYYYWGQGTQVTVSS	high polyreactivity
QVQLVESGGGLVQAGGRLRLSCAASGRTFYTYAMGWYRQAPGKERELVAAITSGGSTYSADSVKGRFTISRDNAKNTVYLQMNSLKPEDTAVYYCAAEFYYWRGFDYWGQGTQVTVSS	low polyreactivity
QVQLVESGGGLVQAGGRLRLSCAASGRTILSYAMGWYRQAPAKERELVAAITGSGGRKYYADSVKGRFTISRENAKNTVYLQMNSLKPEDTAVYYCATRWIKGRKMDYWGQGTQVTVSS	high polyreactivity
QVQLVESGGGLVQAGGRLRLSCAASGRTMGWYRQAPRKERELVAAITSGGGSTYYADSVKWRFTISRDNAKNTVYLQMNSLKPEDTAVYYCARTTIAQLHSIVAPHDYWGQGTQVNVSS	low polyreactivity
QVQLVESGGGLVQAGGRLRLSCAASGSIFERNVMGWYRQAPGKERELVAAITSGGSTNYADSVKGRFTISRDNAKNTVYLQMNSLKPEETAVYYCAADVPYRSRFYRYRLSGGDYWGQGSQVTVSS	low polyreactivity
QVQLVESGGGLVQAGGRLRLSCAASGSIFFDNTMGWYRQAPWKERELVASITYSGSTYADSVKGRFTISRDNAKNTVYLQMNSLKPEDTAVYYCNTESYWKVERFDYWGQGTHVTVSS	low polyreactivity
